Data set [1] concerns the target T1, basic fibroblast growth factor (bFGF) (UniProt P09038 P09038:135-288). Description: filter; PBS, 0.01% HSA, 1 mM DTT, 37 C; +/-0.3. The conditions noted are these: tags: Bachem California, 18 kDa, 154 aa; 125I-labeled for receptor assays. As to the method: (§1) This affinity screening allowed identification of those ligands with highest affinity for bFGF. Binding of a group of these ligands was analyzed over a range of bFGF concentrations (FIG. 5) and their dissociation constants.(Kd's) were determined as described (Jellinek et al. (1993) Proc. Natl. Acad. Sci. USA 90:11227–11231) (Table IX). RNA concentrations were determined from their absorbance reading at […] (and were typically <100 pM). Binding reactions were done at 37° C. in phosphate buffered saline containing 0.01% human serum albumin and 1 mM DTT.

For data set [2], the target named is T1, basic fibroblast growth factor (bFGF). The data set can be described thus: filter. The note with it: tags: Bachem California, 18 kDa, 154 aa; 125I-labeled for receptor assays. As to the method:
(§2) In order to eliminate higher order structures, all DNA solutions were heated to 90° C. in PBS for 2–3 minutes and cooled on ice prior to incubation with protein. Relative binding affinity of individual ligands to bFGF cannot be predicted from sequence information. The majority of sequence isolates were therefore screened for their ability to bind to bFGF by measuring the fraction of radiolabeled DNA bound to nitrocellulose filters following incubation with 1 nM protein. […] Binding of these select isolates was then analyzed in more detail.
Those ligands are M225, M19, m234, M235, and D12 (SEQ ID NOS:359, 353, 387, 360, 332). The minimum size of the region necessary for binding was determined to be 35 bases for M225, M19 and D12 (See Truncations, Table XXI M225t3 (SEQ ID NO:364), M19t2 (SEQ ID NO:365), D12t2 (SEQ ID NO:341)). The ligand with the smallest essential sequence, m234, was isolated from Family 2, Experiment 3 and contains 24 nucleotides (m234t2 (SEQ ID NO:391)). The truncated ligands were tested for binding to bFGF. After truncation, ligands M225t3, M19t2, D12t2, M235t2, and m234t2 have kd values of 0.7 nM, 1 nM, 1 nM, 1 nM, and 6 nM respectively (Table XXII). All five of the truncated molecules lost some of their affinity for bFGF in comparison to the full length ligands. The binding affinity is regained when an additional G-C base pair is added to the blunt end stem of M225t3. This molecule is termed M225t3GC (SEQ ID NO:443). The binding of M225t3GC is 0.2 nM compared to 0.7 nM for M225t3 without the additional base pair (Table XXII).

The target is the same in data set [3]. The data set can be described thus: filter; PBS, 0.01% HSA, 1 mM DTT, 37 C; +/-0.5. The note with it: tags: Bachem California, 18 kDa, 154 aa; 125I-labeled for receptor assays. As to the method:
as §1

Data set [4] addresses T2, thrombin (alpha) (human, UniProt P00734;P00734 P00734:328-363,P00734:364-622). Description: filter; 50 mM Tris pH 7.5, 100 mM NaCl, 1 mM MgCl2, 37 C.
The target in data set [5] is T1, basic fibroblast growth factor (bFGF). The data set can be described thus: filter; PBS. The conditions noted are these: tags: Bachem California, 18 kDa, 154 aa; 125I-labeled for receptor assays; label: 32P. As to the method:
as §2

The next data set concerns the target antithrombin III (UniProt P01008 P01008:33-464). Description: filter; specificity, data not shown. The conditions noted are these: label: 32P.
Another data set concerns the target acidic FGF (UniProt P05230 P05230:16-155). The data set can be described thus: filter; specificity, data not shown. The conditions noted are these: label: 32P.
For data set [6], the target named is vascular endothelial growth factor (VEGF) (UniProt P15692-4 P15692-4:27-191). Description: filter; specificity, data not shown. The conditions noted are these: chain copies: 2; label: 32P.
Chain of vascular endothelial growth factor (VEGF) (P15692 other isoform, or with tags, fused parts or gaps): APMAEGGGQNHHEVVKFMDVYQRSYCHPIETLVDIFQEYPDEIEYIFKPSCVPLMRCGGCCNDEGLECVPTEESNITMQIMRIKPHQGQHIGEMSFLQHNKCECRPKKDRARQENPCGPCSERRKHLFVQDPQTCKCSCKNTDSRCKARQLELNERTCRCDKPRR
The target of data set [7] is T2, thrombin (alpha). The data set can be described thus: filter; specificity, data not shown.

T1 sequence (P09038 135-288, one chain of several): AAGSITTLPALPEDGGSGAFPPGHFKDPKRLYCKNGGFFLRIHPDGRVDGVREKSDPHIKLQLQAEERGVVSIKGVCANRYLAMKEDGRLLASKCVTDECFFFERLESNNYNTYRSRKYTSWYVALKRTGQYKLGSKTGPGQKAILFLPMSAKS
Chain of antithrombin III (P01008 33-464, one chain of several): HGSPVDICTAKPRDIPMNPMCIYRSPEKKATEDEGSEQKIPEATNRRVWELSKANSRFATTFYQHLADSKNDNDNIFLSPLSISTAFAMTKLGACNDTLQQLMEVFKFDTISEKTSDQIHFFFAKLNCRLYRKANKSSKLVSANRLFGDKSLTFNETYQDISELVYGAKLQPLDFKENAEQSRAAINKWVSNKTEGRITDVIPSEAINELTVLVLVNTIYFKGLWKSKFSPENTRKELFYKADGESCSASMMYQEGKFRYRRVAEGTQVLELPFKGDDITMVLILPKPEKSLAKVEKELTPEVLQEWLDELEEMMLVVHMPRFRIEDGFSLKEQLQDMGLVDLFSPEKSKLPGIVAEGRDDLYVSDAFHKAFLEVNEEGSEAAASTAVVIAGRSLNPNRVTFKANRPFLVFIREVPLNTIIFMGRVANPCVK
Chain of acidic FGF (P05230 16-155, one chain of several): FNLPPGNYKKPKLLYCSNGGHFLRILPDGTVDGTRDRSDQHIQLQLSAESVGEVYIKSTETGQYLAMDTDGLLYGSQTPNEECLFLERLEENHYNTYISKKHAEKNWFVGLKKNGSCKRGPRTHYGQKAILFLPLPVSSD

B1: 2'-NH2 58A (ssRNA)
RNA: GGGAGACAAGAAUAACGCUCAAUUAACGGCGUGGUCCGAGGGUGGCGAGUACUUCGACAGGAGGCUCACAACAGGC
modifications: 2'-NH2 pyrimidines
For B1, the equilibrium dissociation constant (Kd) in [1] is 1.4 nM.
Turning to CGAGGAGCTTTAGCGCCACAGGTT (ssDNA) [m234t2], the affinity in data set [2], expressed as Kd, was 6 nM.

B2: 2'-NH2 22B (ssRNA)
RNA: GGGAGGACGAUGCGGCGUGGUUCCGUGGGUGGUGAGAUGAGACUUAAUCAGUUCGUAGACCGGUCAGACGACUCGCCCGA
modifications: 2'-NH2 pyrimidines
In the case of B2, in [3], the affinity, expressed as Kd, was 2.8 nM.

B3: 30-14 (ssDNA)
DNA: AGATGCCTGTCGAGCATGCTGTTGTGGTAGGGTTAGGGATGGTAGCGGTTGTAGCTAAACTGCTTTGTCGACGGG
In the data set with thrombin (alpha) [4], B3 came in with a Kd of 1 nM. In other words, the single-digit nanomolar range.

B4: 2'-NH2 53A (ssRNA)
RNA: GGGAGACAAGAAUAACGCUCAAUGAGGAUCGGAUGGGGAGCAGGCGGAGGAAUUCGACAGGAGGCUCACAACAGGC
modifications: 2'-NH2 pyrimidines
In data set [1], B4 came in with a dissociation constant Kd of 1.5 nM.

B5: 60-7 (ssDNA)
DNA: AGATGCCTGTCGAGCATGCTGGCGGCGTTGGTGTAGTGGCGCACTGTGGTTGGGCGGAGAGGCTAGGAGTGCATGATGCCGTAGCTAAACTGCTTTGTCGACGGG
B5 displayed a dissociation constant Kd with thrombin (alpha) [4] of 2.5 nM.

B6: 30-16 (ssDNA)
DNA: AGATGCCTGTCGAGCATGCTGCCGCTACGAGGGTAGGTGTGGATGCTGCCGTAGCTAAACTGCTTTGTCGACGGG
Consider B6, for which the Kd with thrombin (alpha) [4] was found to be 9.4 nM.

B7: M19 (ssDNA)
DNA: GGGAGGACGATGCGGGGCTATGTAAATTACTGCTGTACTACGCATCAGACGACGACGGGGA
With B7, the affinity in data set [5], expressed as Kd, was 0.3 nM.
Take GCGGGGCTCTGCAAAGGACACAGGTCCTACGCATCAG (ssDNA) [M235t2]: the Kd in [2] is 1 nM.

B8: m224 (ssDNA)
DNA: GGGAGGACGATGCGGCACCGAGGAATAACTGACGCCAGGCTGGCGCAGACGACGACGGGGA
In [5], B8 registered a Kd of 1.5 nM.

B9: 2'-NH2 47B (ssRNA)
RNA: GGGAGGACGAUGCGGAGGGUGGCUGGGAGGACCCGCGGUGAAUCGGUAGCACAGUGAUGUUCGGUCAGACGACUCGCCCGA
modifications: 2'-NH2 pyrimidines
As for B9, in data set [1], the dissociation constant (Kd) came out at 2.9 nM. That is a single-digit nanomolar value.

B10: 30-35 (ssDNA)
DNA: AGATGCCTGTCGAGCATGCTGGGAGTGGTAGGAGTAGGGTTGGAGCCGTAGTAGCTAAACTGCTTTGTCGACGGG
B10: the Kd in the data set with thrombin (alpha) [4] turned out to be 1.4 nM.

B11: m206 (ssDNA)
DNA: GGGAGGACGATGCGGACCTGGTGGCTGTGCTTATGTCCCCCTCATCAGACGACGACGGGGA
Consider B11, for which, in data set [5], the dissociation constant Kd was determined as 1.8 nM. This counts as single-digit nanomolar.

B12: 30-6 (ssDNA)
DNA: AGATGCCTGTCGAGCATGCTACACCCGTGGTAGGGTAGGATGGGGTGGTCGTAGCTAAACTGCTTTGTCGACGGG
In the data set with thrombin (alpha) [4], B12 came in with an equilibrium dissociation constant (Kd) of 1.2 nM.

B13: 2'-NH2 52B (ssRNA)
RNA: GGGAGGACGAUGCGGGGAGGGGCAGGUUCGAUGCGGGAGCGACUGACCACGAGAAAUGUGCGGGUCAGACGACUCGCCCGA
modifications: 2'-NH2 pyrimidines
Turning to B13, binding in data set [1] was characterised by a dissociation constant (Kd) of 2.3 nM.

B14: M225 (ssDNA)
DNA: GGGAGGACGATGCGGGGCTACGTACCGGGGCTTTGTAAAACCCCGCAGACGACGACGGGGA
In data set [5], B14 came in with a Kd of 0.1 nM.

B15: 30-8 (ssDNA)
DNA: AGATGCCTGTCGAGCATGCTGTGAATAGGTAGGGTCGGATGGGCTACGGTGTAGCTAAACTGCTTTGTCGACGGG
In the data set with thrombin (alpha) [4], B15 came in with a Kd of 0.4 nM.

B16: 60-27 (ssDNA)
DNA: AGATGCCTGTCGAGCATGCTGGCGTCCGATGATTCAGGTCGTGGTAGGCATTGAGGGATGGGGTCCTGTGGGACTGGCCTGTAGCTAAACTGCTTTGTCGACGGG
Turning to B16, in the data set with thrombin (alpha) [4], the affinity, expressed as Kd, was 0.96 nM.

B17: m234 (ssDNA)
DNA: GGGAGGACGATGCGGCCCGAGGAGCTTTAGCGCCACAGGTTTGTGCAGACGACGACGGGGA
As to B17, the Kd in [5] came to 0.7 nM.

B18: 2'-NH2 49A (ssRNA)
RNA: GGGAGACAAGAAUAACGCUCAAAUGGUGUGUGGAAGACAGUGGGUGGUUGCAUUCGACAGGAGGCUCACAACAGGC
modifications: 2'-NH2 pyrimidines
Turning to B18, in data set [1], binding was characterised by a dissociation constant (Kd) of 1.4 nM.

B19: 5A (ssRNA)
RNA: GGGAGCUCAGAAUAAACGCUCAAAUCUCCUCCCGUCGAAGCUAACCUGGCCACUUCGACAUGAGGCCCGGAUCCGGC
In the case of B19, the Kd (in the data set with antithrombin III; with acidic FGF; in data set [6]; in the data set with thrombin (alpha) [7]) was greater than 300 nM throughout.
CAGTCCGTGGTAGGGCAGGTTGGGGTGACTTCGTGGAA (ssDNA) [60-18(38)]: in the data set with thrombin (alpha) [4], the dissociation constant (Kd) came to 1.9 nM.

B20: M235 (ssDNA)
DNA: GGGAGGACGATGCGGGGCTCTGCAAAGGACACAGGTCCTACGCATCAGACGACGACGGGGA
The molecule B20 gave a Kd in [5] of 0.2 nM.
On to GGCGGGGCTACGTACCGGGGCTTTGTAAAACCCCGCC (ssDNA) [M225t3GC], for which the dissociation constant Kd in [2] was determined as 0.2 nM. This lies in the sub-nanomolar range.

B21: 2'-NH2 54A (ssRNA)
RNA: GGGAGACAAGAAUAACGCUCAAACUGUUGUGUGGAAGACAGCGGGUGGUUGAUUCGACAGGAGGCUCACAACAGGC
modifications: 2'-NH2 pyrimidines
In the case of B21, in data set [1], binding was characterised by a dissociation constant (Kd) of 1.7 nM.

B22: 60-18 (ssDNA)
DNA: AGATGCCTGTCGAGCATGCTCTTTGGAGACAGTCCGTGGTAGGGCAGGTTGGGGTGACTTCGTGGAAGAAGCGAGACGGTGTAGCTAAACTGCTTTGTCGA
In the data set with thrombin (alpha) [4], B22 came in with a Kd of 0.92 nM.

B23: 26A (ssRNA)
RNA: GGGAGCUCAGAAUAAACGCUCAACGUCAGAAGGCAACGUAUAGGCAAGCACACUUCGACAUGAGGCCCGGAUCCGGC
As for B23, the Kd (in the data set with antithrombin III; with acidic FGF; in [6]; in the data set with thrombin (alpha) [7]) was greater than 300 nM in each case.
Turning to GCGGGGCTATGTAAATTACTGCTGTACTACGCATC (ssDNA) [M19t2], the affinity in data set [2], expressed as Kd, was 1 nM.
In the case of AGGCCAGGGCTATGCAAATCGCGGCGCCTATGGCC (ssDNA) [D12t2], the affinity in data set [2], expressed as Kd, was 1 nM.

B24: M17 (ssDNA)
DNA: GGGAGGACGATGCGGGGGGCTTTGCAAAAATTGTTAAATCTACCCCAGACGACGACGGGGA
B24 returned a dissociation constant (Kd) in data set [5] of 6.9 nM.

B25: 7A (ssRNA)
RNA: GGGAGCUCAGAAUAAACGCUCAAUCGGCGAGCUAACCAAGACACUCGCUGCACUUCGACAUGAGGCCCGGAUCCGGC
Regarding B25, the dissociation constant Kd (with antithrombin III; with acidic FGF; in [6]; in the data set with thrombin (alpha) [7]) was greater than 300 nM each time.

(Values after patent US6177557, “High affinity ligands of basic fibroblast growth factor and thrombin” (NeXstar Pharmaceuticals, Inc.).)
